{"source": "paper PMC3932240", "about": "(Biochemistry, 2013)", "target": "the molecule itself", "assay": "SEC"}
{"protein": "CpcS-III bilin lyase from Thermosynechococcus elongatus BP-1, C-terminally His-tagged (from pTER13-21) (enzyme, UniProt Q8DI91 1-182, looked up, selenomethionine-labeled in the sample that was crystallized) MCIGMDIRDFFAQSAGRWFSQRTSHHLAFKQTESGKSQLTIELLSVDDPAVIALCQQYDMDPAWAVCGARVSWDGTMEWDNEKHEGSTVLVPIMDQGSRMEGKLLREMGYAEKAPVAGRFSMGSDGALTLITEYETIYSEERLWFASPNLRLRTSILKRFGGFSMASFCSEIRLGVTQPANS", "values": [{"measurement": "stoichiometry N", "result": 2}]}
